Laboratory results: the supplement of paper PMC10126150
± gives the standard deviation of the averaged measurements.

System: ATP
Test: switch fluorescence ratio, 500 uM ATP over buffer (Cy3 cluster intensity, sum of 5 cycles each) (fold (ratio)); higher = stronger signal-on switching upon ATP binding; sequences stand for … in TCGTCGGCAGCGTCAGATGTGTATAAGAGACAGTTTTTTTTTTTTTTTTTTTTTTTTT…TC
Conditions: aptamer strand: ATP DNA aptamer (quencher-CACCTGGGGGAGTATTGCGGAGGAAGG + anchor), 100 nM annealed; ATP concentration: 500 uM
Procedure, shortened: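 For every switch-domain sequence, the fluorescence ratio is the mean of per-cluster values, each being summed target-cycle Cy3 intensity over summed buffer-cycle Cy3 intensity. Clusters outside 100-1000 RFU were excluded. On a modified Illumina MiSeq flow-cell, the Cy3-labelled switching-strand clusters were annealed to 100 nM quencher-labelled ATP aptamer, imaged in selection buffer and then after 15 min with 500 uM ATP at 22 °C. Five such cycles were run, with NaOH stripping and re-annealing between them.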
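Also: ATP exposure 15 min at 22 °C before imaging.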

AGATTTATCG
switch fluorescence ratio: 0.9781 ± 0.0027

CCAATGTATG
switch fluorescence ratio: 0.998 ± 0.044

ACACTGTATC
switch fluorescence ratio: 1.21 ± 0.038

GATGTGTCTG
switch fluorescence ratio: 0.999 ± 0.026

ATGAAAGGAT
switch fluorescence ratio: 1.014 ± 0.0042

CGAGCAGTTA
switch fluorescence ratio: 1.19 ± 0.074

GGTCAGGGGC
switch fluorescence ratio: 1.08 ± 0.017

GGTTTTGGGC
switch fluorescence ratio: 1.02 ± 0.042

TTCTGTTCGC
switch fluorescence ratio: 1.03 ± 0.025

TGGCTAAAAT
switch fluorescence ratio: 0.998 ± 0.023

AGGGAGGGTG
switch fluorescence ratio: 1.02 ± 0.066

CGTCATTAAA
switch fluorescence ratio: 0.984 ± 0.023

CGCGGCAGGA
switch fluorescence ratio: 1.02 ± 0.019

GCCGGGATCG
switch fluorescence ratio: 0.97 ± 0.03

AATTAGGGTA
switch fluorescence ratio: 1.03 ± 0.012

CGATTAGTTG
switch fluorescence ratio: 0.998 ± 0.032

CAAAGTACAA
switch fluorescence ratio: 1.17 ± 0.02

GGGGGATTCT
switch fluorescence ratio: 1.02 ± 0.011

TAAAAATTAT
switch fluorescence ratio: 1 ± 0.028

TGGGAACCGT
switch fluorescence ratio: 1.18 ± 0.32

GGGTCCGGCG
switch fluorescence ratio: 0.995 ± 0.034

AGGGGGGAC
switch fluorescence ratio: 0.9875 ± 0.0048

TAAATCAGTA
switch fluorescence ratio: 0.9888 ± 0.0048

CCGAGGAAGC
switch fluorescence ratio: 1.34 ± 0.14

CACAGAGGGG
switch fluorescence ratio: 1.02 ± 0.028

CAGGGTTGAG
switch fluorescence ratio: 0.997 ± 0.014

GAGAGGGGTC
switch fluorescence ratio: 1.01 ± 0.045

TTGCTTAAGG
switch fluorescence ratio: 0.997 ± 0.026

GTGGGCGTTT
switch fluorescence ratio: 1 ± 0.017

AAAAAGCTGA
switch fluorescence ratio: 0.973 ± 0.055

CAAGTTGTTA
switch fluorescence ratio: 0.964 ± 0.029

AGCGATGCGG
switch fluorescence ratio: 0.9867 ± 0.0023

TTTTATGTTT
switch fluorescence ratio: 1 ± 0.019

ACCACTAAAA
switch fluorescence ratio: 1.04 ± 0.019

ACAAAGAGTC
switch fluorescence ratio: 0.9932 ± 0.0083

GGTCTGGAAG
switch fluorescence ratio: 0.982 ± 0.035

TTAGAAGTCA
switch fluorescence ratio: 1.0063 ± 0.00067

AATTTTGTTA
switch fluorescence ratio: 0.976 ± 0.043

CTGGTCCGGC
switch fluorescence ratio: 1.01 ± 0.078

CACGTTGAAC
switch fluorescence ratio: 1.11 ± 0.034

GGGGTGGTAT
switch fluorescence ratio: 0.99 ± 0.044

ATATTCGGAA
switch fluorescence ratio: 0.99369 ± 0.00071

ACGAAATTGG
switch fluorescence ratio: 1.04 ± 0.068

TGAAATATCA
switch fluorescence ratio: 1.0208 ± 0.00019

GGTGTGGGGT
switch fluorescence ratio: 0.986 ± 0.02

GGTGTAGATT
switch fluorescence ratio: 1.07 ± 0.04

TTTAATCAAA
switch fluorescence ratio: 0.988 ± 0.014

TACTAGACAG
switch fluorescence ratio: 1.028 ± 0.0016

GACTTCGAGC
switch fluorescence ratio: 1.02 ± 0.024

CATGGTCATG
switch fluorescence ratio: 1 ± 0.017

GGGTGTTTTC
switch fluorescence ratio: 0.998 ± 0.034

GATGGTTGCG
switch fluorescence ratio: 1.02 ± 0.022

TTTTTTGGTA
switch fluorescence ratio: 1.01 ± 0.036

CGTCATTCGC
switch fluorescence ratio: 1.05 ± 0.16

AACGCGGTAT
switch fluorescence ratio: 1.03 ± 0.095

TTTGGTGCTT
switch fluorescence ratio: 0.974 ± 0.045

AGTGTGGGCT
switch fluorescence ratio: 1.04 ± 0.021

AAAGTTTGG
switch fluorescence ratio: 0.977 ± 0.017

GGTTTAAGTT
switch fluorescence ratio: 0.99 ± 0.03

GATATATAGA
switch fluorescence ratio: 0.998 ± 0.032

TATATATCTC
switch fluorescence ratio: 0.9917 ± 0.0089

TGGGTTGGCT
switch fluorescence ratio: 1.015 ± 0.0098

GGTTTTATGA
switch fluorescence ratio: 1.002 ± 0.0062

CTAATTGTTT
switch fluorescence ratio: 0.973 ± 0.025

AATTGCGGCC
switch fluorescence ratio: 0.979 ± 0.045

TTTATCGCAG
switch fluorescence ratio: 0.994 ± 0.039

TTTGACCGGA
switch fluorescence ratio: 1.02 ± 0.072

GAGTCGGGGG
switch fluorescence ratio: 0.985 ± 0.01

GATATTGAGT
switch fluorescence ratio: 0.9648 ± 0.0073

TACATAAGTT
switch fluorescence ratio: 1.02 ± 0.0074

GGTTAAAATC
switch fluorescence ratio: 1.02 ± 0.023

TTTAGCGCGG
switch fluorescence ratio: 1 ± 0.029

TAAACCGTGG
switch fluorescence ratio: 1.02 ± 0.024

GGTGCTTAAT
switch fluorescence ratio: 1 ± 0.037

TTAATATTTT
switch fluorescence ratio: 0.985 ± 0.026

ACTTGGGGAG
switch fluorescence ratio: 1 ± 0.014

CTGGATTTCA
switch fluorescence ratio: 0.99 ± 0.027

ATGGGGGCCG
switch fluorescence ratio: 1.01 ± 0.039

TTCGCTCGAG
switch fluorescence ratio: 1 ± 0.017

CGGCGAATCC
switch fluorescence ratio: 1.033 ± 0.0088

TTCGGAGGAT
switch fluorescence ratio: 1.02 ± 0.048

GCTATGAG
switch fluorescence ratio: 0.995 ± 0.037

GTATCCAGGG
switch fluorescence ratio: 1.13 ± 0.036

GGCCTATTGG
switch fluorescence ratio: 0.998 ± 0.023

GGGGTCTTGG
switch fluorescence ratio: 1.03 ± 0.038

CTATTAGGTA
switch fluorescence ratio: 0.977 ± 0.0046

AATTGATTGG
switch fluorescence ratio: 0.983 ± 0.032

CCTTCCTACG
switch fluorescence ratio: 2.36 ± 0.54

ACGTAACGCT
switch fluorescence ratio: 1.3 ± 0.052

GGGGCTGTCT
switch fluorescence ratio: 1 ± 0.071

GCTGGCTTGC
switch fluorescence ratio: 0.988 ± 0.021

TTTGTATAGG
switch fluorescence ratio: 0.98 ± 0.035

GCAGTTAATC
switch fluorescence ratio: 1.05 ± 0.026

GTTGGTGGGG
switch fluorescence ratio: 0.957 ± 0.035

GGAGGACGGG
switch fluorescence ratio: 1 ± 0.027

CTGTTATCGA
switch fluorescence ratio: 0.9972 ± 0.0029

TAGGAGGGTG
switch fluorescence ratio: 1.01 ± 0.035

ACATTCCAAA
switch fluorescence ratio: 1.03 ± 0.013

TTGGGGTGGT
switch fluorescence ratio: 0.993 ± 0.032

TTTTACAGTT
switch fluorescence ratio: 1.02 ± 0.023

TTGGTGGTT
switch fluorescence ratio: 0.9809 ± 0.0089

TTTGTAGAGT
switch fluorescence ratio: 1.01 ± 0.034

TAAGAGACGG
switch fluorescence ratio: 0.991 ± 0.056

TTTGCGACTG
switch fluorescence ratio: 1.03 ± 0.015

TTTGGTTATG
switch fluorescence ratio: 0.982 ± 0.017

TGAAATAGGG
switch fluorescence ratio: 1.0312 ± 0.00097

ACTCGTAATC
switch fluorescence ratio: 3.04 ± 0.48

CCGTACGTCA
switch fluorescence ratio: 1.77 ± 0.041

AGAATGAGTG
switch fluorescence ratio: 1.026 ± 0.0048

GGTATGTCGA
switch fluorescence ratio: 0.954 ± 0.075

TTTTATTTCA
switch fluorescence ratio: 0.991 ± 0.021

TTTCATTTCT
switch fluorescence ratio: 1 ± 0.018

GTCGGACATG
switch fluorescence ratio: 0.993 ± 0.073

TTTTTCTATA
switch fluorescence ratio: 0.994 ± 0.066

TAGTACAGGC
switch fluorescence ratio: 1.06 ± 0.015

GAGGGAGTAT
switch fluorescence ratio: 0.9959 ± 0.0027

TTTGGACAGG
switch fluorescence ratio: 1.004 ± 0.0071

GATAGACTCT
switch fluorescence ratio: 0.975 ± 0.029

TTAGACGAGC
switch fluorescence ratio: 0.986 ± 0.031

TATAAGACAA
switch fluorescence ratio: 1.02 ± 0.022

AGGTAGATGG
switch fluorescence ratio: 0.995 ± 0.0096

TAGGTCAATC
switch fluorescence ratio: 1.026 ± 0.0029

AAGCGGGGAC
switch fluorescence ratio: 1.07 ± 0.013

TGTTGAACGT
switch fluorescence ratio: 1.004 ± 0.0086

GGGAAGGGAT
switch fluorescence ratio: 0.981 ± 0.031

AAGTTATTTT
switch fluorescence ratio: 1.01 ± 0.015

ATGTAATTTC
switch fluorescence ratio: 0.9987 ± 0.0036

AAGCTTCGGG
switch fluorescence ratio: 1.06 ± 0.029

GGTGGGAAGA
switch fluorescence ratio: 1.02 ± 0.017

AAAAGGAAT
switch fluorescence ratio: 1.001 ± 0.009

CGGGGAGCCA
switch fluorescence ratio: 1.001 ± 0.01

GTAGTGAGCT
switch fluorescence ratio: 0.999 ± 0.05

AATAAAAGAG
switch fluorescence ratio: 0.962 ± 0.018

ACTAAATAAA
switch fluorescence ratio: 1.14 ± 0.23

GATTGAGAGC
switch fluorescence ratio: 0.9928 ± 0.005

TATCCCGGTG
switch fluorescence ratio: 1.82 ± 0.043

TAAAGTGGCG
switch fluorescence ratio: 1.05 ± 0.039

ATGGAAAAGC
switch fluorescence ratio: 1 ± 0.056

AATCCTAGTT
switch fluorescence ratio: 1.01 ± 0.011

AATTAAAAAG
switch fluorescence ratio: 0.975 ± 0.023

AGTAAATCTC
switch fluorescence ratio: 1.04 ± 0.017

CTCGGGGGTT
switch fluorescence ratio: 1.06 ± 0.08

GGAAGTCCGG
switch fluorescence ratio: 1.03 ± 0.022

GGTGCGGGCG
switch fluorescence ratio: 1.02 ± 0.11

ACTCGTCACA
switch fluorescence ratio: 1.15 ± 0.059

GCAATGGGAA
switch fluorescence ratio: 1.1 ± 0.019

GCAGGGTCTG
switch fluorescence ratio: 1.02 ± 0.083

GGGACCGTAT
switch fluorescence ratio: 1 ± 0.023

CACAGCTAAA
switch fluorescence ratio: 1.09 ± 0.018

TCGGTTGCTA
switch fluorescence ratio: 1.05 ± 0.023

TTTTCCAAGA
switch fluorescence ratio: 1.09 ± 0.1

TTGACGGAGA
switch fluorescence ratio: 0.993 ± 0.039

CCAGTTTCTG
switch fluorescence ratio: 1.02 ± 0.012

ACCTAGCTTC
switch fluorescence ratio: 1.12 ± 0.05

TATACGAATT
switch fluorescence ratio: 1.02 ± 0.074

GAGGGTAGGT
switch fluorescence ratio: 1.06 ± 0.063

TTTAGGTTGC
switch fluorescence ratio: 0.9817 ± 0.0056
